The values that follow come from patent publication US20150098945A1 (Daiichi Sankyo, published 2015).

Assay [1] deals with T1, mouse ROBO4 (pCI-mROBO4-transfected HEK293 cells) (mouse, UniProt Q8C310 28-1012).
T1 sequence: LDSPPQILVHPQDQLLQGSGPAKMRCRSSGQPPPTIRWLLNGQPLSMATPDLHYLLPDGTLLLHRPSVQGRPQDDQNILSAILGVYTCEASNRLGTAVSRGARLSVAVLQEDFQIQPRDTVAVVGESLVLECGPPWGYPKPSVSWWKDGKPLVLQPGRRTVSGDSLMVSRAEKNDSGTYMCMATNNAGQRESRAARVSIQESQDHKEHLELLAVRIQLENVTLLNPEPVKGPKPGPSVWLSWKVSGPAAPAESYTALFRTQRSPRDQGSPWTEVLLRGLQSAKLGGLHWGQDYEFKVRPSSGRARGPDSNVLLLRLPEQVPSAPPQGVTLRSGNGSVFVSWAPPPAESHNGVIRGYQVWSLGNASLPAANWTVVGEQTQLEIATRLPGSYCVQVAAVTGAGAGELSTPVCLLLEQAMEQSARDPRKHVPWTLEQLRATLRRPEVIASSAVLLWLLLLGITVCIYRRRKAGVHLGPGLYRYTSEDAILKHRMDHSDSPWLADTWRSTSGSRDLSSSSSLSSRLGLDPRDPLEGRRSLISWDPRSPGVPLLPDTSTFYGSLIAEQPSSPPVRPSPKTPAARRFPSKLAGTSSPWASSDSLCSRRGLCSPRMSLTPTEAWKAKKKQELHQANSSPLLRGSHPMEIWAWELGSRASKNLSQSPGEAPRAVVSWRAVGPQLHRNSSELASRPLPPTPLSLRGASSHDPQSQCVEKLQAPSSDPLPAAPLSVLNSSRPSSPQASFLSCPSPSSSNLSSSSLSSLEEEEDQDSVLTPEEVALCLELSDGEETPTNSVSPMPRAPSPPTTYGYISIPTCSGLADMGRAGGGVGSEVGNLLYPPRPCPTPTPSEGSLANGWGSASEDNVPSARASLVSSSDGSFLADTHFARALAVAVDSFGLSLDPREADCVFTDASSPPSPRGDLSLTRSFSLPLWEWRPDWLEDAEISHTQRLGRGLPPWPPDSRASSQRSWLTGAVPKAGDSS
Kind of assay: flow cytometry (FC500), HEK293 cells transfected with pCI-mROBO4, FITC goat anti-human IgG Fc; control histogram IgG (human IgG).

Assay [2] concerns the target T2, N-terminal FLAG-tagged cynomolgus monkey ROBO4, cynoROBO4-2 (pCI-FLAG-cynoROBO4-2) (cynomolgus monkey, UniProt Q8WZ75 28-1007 (human entry)).
T2 chain: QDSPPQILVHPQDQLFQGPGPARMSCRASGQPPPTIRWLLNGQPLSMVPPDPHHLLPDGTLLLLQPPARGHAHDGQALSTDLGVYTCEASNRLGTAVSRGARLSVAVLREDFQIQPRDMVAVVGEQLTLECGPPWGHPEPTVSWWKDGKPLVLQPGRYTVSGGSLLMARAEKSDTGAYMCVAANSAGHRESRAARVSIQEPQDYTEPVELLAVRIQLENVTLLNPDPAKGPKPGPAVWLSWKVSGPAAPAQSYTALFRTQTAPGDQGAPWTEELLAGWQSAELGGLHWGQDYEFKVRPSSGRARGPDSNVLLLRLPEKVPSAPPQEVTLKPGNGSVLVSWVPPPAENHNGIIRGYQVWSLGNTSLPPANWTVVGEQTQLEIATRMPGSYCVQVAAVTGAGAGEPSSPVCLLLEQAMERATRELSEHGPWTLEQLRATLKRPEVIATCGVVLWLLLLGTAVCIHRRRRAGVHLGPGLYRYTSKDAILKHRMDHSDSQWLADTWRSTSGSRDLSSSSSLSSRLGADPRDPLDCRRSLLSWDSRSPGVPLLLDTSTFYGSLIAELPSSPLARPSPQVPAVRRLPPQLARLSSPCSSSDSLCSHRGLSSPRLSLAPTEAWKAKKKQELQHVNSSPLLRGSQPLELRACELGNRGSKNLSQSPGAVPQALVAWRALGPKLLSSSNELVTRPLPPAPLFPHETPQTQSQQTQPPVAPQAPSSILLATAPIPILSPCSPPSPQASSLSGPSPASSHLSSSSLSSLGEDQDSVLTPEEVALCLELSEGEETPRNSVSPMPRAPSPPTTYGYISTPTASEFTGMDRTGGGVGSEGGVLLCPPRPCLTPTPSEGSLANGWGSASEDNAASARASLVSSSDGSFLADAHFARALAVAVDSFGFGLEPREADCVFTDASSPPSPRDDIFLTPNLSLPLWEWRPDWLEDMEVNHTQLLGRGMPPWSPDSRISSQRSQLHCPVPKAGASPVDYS
The experiment in a line: flow cytometry (FC500), HEK293 cells transfected with pCI-FLAG-cynoROBO4-2, antibody at 10 µg/mL, FITC goat anti-human IgG Fc; control histogram IgG (human IgG).

B1: humanized MAb1 antibody H-2143 (antibody, human IgG2, kappa, V domains shown)
VH: EVQLVESGGGLVQPGGSLRLSCAASGFTFSTYAMSWVRQAPGKRLEWVATISQGGTYTYYPDSVKGRFTISRDNAKNTLYLQMNSLRAEDTAVYYCARLIYYDYLDYWGQGTLVTVSS
VL: DIVMTQSPLSLPVTLGEPASISCRSSQSLENENKNLYLNWYLQKPGQSPQLLIYRVSNRFSGVPDRFSGSGSGTDFTLKISRVEAEDVGVYYCLQVTHVPWTFGPGTKVDIKR
notes: Human IgG2 / kappa constant regions; also called hMAb1-H4-type heavy chain + hMAb1-L2-type light chain
As to B1, the binding result is reported as “no binding (tested: 10 µg/mL)” in assay [1] and “binds” in assay [2].
